This is an account of results in patent publication US20070060521A1.

The target of the test is IL-6 receptor on U266 human myeloma cells (human) (UniProt P08887). The test can be described thus: cell-based or functional assay.
Sequence of IL-6 receptor on U266 human myeloma cells (human) (P08887 20-468): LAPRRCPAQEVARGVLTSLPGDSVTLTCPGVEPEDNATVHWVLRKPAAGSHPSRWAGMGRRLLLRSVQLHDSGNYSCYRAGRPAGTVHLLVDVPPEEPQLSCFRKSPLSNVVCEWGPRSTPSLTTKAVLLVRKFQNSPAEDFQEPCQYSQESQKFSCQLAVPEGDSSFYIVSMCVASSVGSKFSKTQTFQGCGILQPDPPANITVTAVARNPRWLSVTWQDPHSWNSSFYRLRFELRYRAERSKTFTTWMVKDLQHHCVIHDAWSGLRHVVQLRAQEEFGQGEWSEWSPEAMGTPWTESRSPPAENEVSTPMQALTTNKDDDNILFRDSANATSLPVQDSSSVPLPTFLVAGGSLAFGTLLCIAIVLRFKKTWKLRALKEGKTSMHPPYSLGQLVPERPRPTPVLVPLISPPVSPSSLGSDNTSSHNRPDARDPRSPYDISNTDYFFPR

In turn, Sant7, IL-6 superantagonist (ligand) registered a reduction of constitutive STAT3 DNA-binding (EMSA) in U266 cells of 70%.
